Results on 2 molecules are retold here after publication PMC10303457 (Viruses, 2023).

The assay addresses Mouse IMPα1 residues 70–529 (lacking the IMPβ binding domain) (mouse, UniProt P52293 70-529). The assay is described as follows: crystal structure. As to conditions: both partners purified.

B1: HeV M NLS2 peptide (untagged) (peptide)
peptide: VRRAGKYYSVEYCKRKID
In the case of B1, the binding result is on record as “binds”.

B2: HeV M NLS1 peptide (untagged) (peptide)
peptide: SGKRKKIRTIAAYPLGVGKS
For the molecule B2, the binding result is listed as “binds”.
